{"source": "FireProtDB (doi:10.1002/prot.20309)", "proteins": {"B1": {"name": "Beta-lactoglobulin wild type, P02754 (protein)", "chain": "MKCLLLALALTCGAQALIVTQTMKGLDIQKVAGTWYSLAMAASDISLLDAQSAPLRVYVEELKPTPEGDLEILLQKWENGECAQKKIIAEKTKIPAVFKIDALNENKVLVLDTDYKKYLLFCMENSAEPEQSLACQCLVRTPEVDDEALEKFDKALKALPMHIRLSFNPTQLEEQCHI"}, "B2": {"name": "Beta-lactoglobulin-1A/1C wild type, P04119 (protein)", "chain": "MRCLLLTLGLALLCGVQAVEVTPIMTELDTQKVAGTWHTVAMAVSDVSLLDAKSSPLKAYVEGLKPTPEGDLEILLQKRENDKCAQEVLLAKKTDIPAVFKINALDENQLFLLDTDYDSHLLLCMENSASPEHSLVCQSLARTLEVDDQIREKFEDALKTLSVPMRILPAQLEEQCRV"}}}
{"conditions": "Bos taurus; pH 2; 25 °C; GdnHCl; CD; Phosphate 10 mM; transition: 3; whole UniProt chain shown", "units": {"denaturant m value": "kcal/mol/M", "denaturant midpoint (higher = more stable)": "M", "unfolding free energy": "kcal/mol"}}
{"protein": "B1", "denaturant m value": 1, "denaturant midpoint (higher = more stable)": 3.8, "unfolding free energy": 12.8}
{"conditions": "Bos taurus; pH 6; 25 °C; GdnHCl; CD; Phosphate 10 mM; whole UniProt chain shown", "units": {"denaturant m value": "kcal/mol/M", "denaturant midpoint (higher = more stable)": "M", "unfolding free energy": "kcal/mol"}}
{"protein": "B1", "denaturant m value": 4.1, "denaturant midpoint (higher = more stable)": 2.8, "unfolding free energy": 11.5}
{"conditions": "Sus scrofa; pH 2; 25 °C; GdnHCl; Fluorescence; Phosphate 10 mM; whole UniProt chain shown", "units": {"denaturant m value": "kcal/mol/M", "denaturant midpoint (higher = more stable)": "M", "unfolding free energy": "kcal/mol"}}
{"protein": "B2", "denaturant m value": 2.2, "denaturant midpoint (higher = more stable)": 1, "unfolding free energy": 2.1}
{"conditions": "Sus scrofa; pH 2; 25 °C; GdnHCl; NMR; Phosphate 10 mM; whole UniProt chain shown", "units": {"denaturant m value": "kcal/mol/M", "denaturant midpoint (higher = more stable)": "M", "unfolding free energy": "kcal/mol"}}
{"protein": "B2", "denaturant m value": 3.5, "denaturant midpoint (higher = more stable)": 0.7, "unfolding free energy": 2.3}
{"conditions": "Sus scrofa; pH 6; 25 °C; GdnHCl; NMR; Phosphate 10 mM; whole UniProt chain shown", "units": {"denaturant m value": "kcal/mol/M", "denaturant midpoint (higher = more stable)": "M", "unfolding free energy": "kcal/mol"}}
{"protein": "B2", "denaturant m value": 4.2, "denaturant midpoint (higher = more stable)": 1.1, "unfolding free energy": 4.6}
